US12529705 (dated 2026)

Target: T1, full-length protein LRP8 expressed in N2A cells transfected with a cDNA coding for LRP8 (Origene, Cat. No. … (human, UniProt Q14114 33-963))
T1 construct: Tested as a lysate of transfected N2A cells in SDS-PAGE and Western blot, not on intact cells; also called LRP8-FL; APOER2
T1 sequence: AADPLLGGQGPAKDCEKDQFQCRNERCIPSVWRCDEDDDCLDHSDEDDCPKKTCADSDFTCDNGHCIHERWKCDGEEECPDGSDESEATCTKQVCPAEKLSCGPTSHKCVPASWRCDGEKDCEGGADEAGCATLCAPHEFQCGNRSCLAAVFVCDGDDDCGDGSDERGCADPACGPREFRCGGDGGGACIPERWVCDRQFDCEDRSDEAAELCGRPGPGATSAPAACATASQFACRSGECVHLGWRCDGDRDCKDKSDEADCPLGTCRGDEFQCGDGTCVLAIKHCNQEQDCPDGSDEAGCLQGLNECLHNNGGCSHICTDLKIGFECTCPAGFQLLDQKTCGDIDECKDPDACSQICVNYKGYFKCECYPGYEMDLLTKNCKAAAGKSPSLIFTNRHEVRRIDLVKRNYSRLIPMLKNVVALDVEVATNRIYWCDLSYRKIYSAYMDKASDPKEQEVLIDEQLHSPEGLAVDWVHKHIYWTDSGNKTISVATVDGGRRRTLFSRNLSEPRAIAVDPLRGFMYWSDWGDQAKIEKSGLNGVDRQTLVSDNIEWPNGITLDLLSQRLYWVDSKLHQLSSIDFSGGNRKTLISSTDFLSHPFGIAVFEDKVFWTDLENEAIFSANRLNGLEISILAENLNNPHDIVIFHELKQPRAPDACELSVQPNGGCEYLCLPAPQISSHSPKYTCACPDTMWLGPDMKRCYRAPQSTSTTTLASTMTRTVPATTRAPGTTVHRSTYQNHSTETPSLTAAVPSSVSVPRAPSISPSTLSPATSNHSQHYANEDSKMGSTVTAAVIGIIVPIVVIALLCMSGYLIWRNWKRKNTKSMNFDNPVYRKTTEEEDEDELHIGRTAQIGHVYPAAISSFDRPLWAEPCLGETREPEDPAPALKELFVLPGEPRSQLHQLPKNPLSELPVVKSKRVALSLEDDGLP
Test: Western blot, lysate of LRP8-transfected N2A cells, antibody at 1 µg/ml
Excerpt: The two lines of hybridomas described above develop antibodies that recognize both the entire protein LRP8 and its different C-terminal fragments. […] I.D. 5 and 9 with a cysteine at the C-terminus are able to produce antibodies that recognize both the protein LRP8 as such, and the fragments of 18-25 kDa, which are substrates of γ-secretase and different shorter fragments of 8-16 kDa, collectively defined as LICDs-derived intracellular domain LRP8, similar to the AICDs fragments derived from the cleavage of AβPP by γ-secretase or by other proteases such as those previously specified. The polyclonal antibodies (rabbit) GS1 and GS2 were made using SEQ I.D. 5 and SEQ I.D. 9, respectively. […] In lane 8 there is a negative control whereas in lane 9 the hybridization was performed using a commercial antibody vs LRP8 (Sigma Aldrich Cat No. SAB1306331) as a positive control. All the antibodies were used at the final concentration of 1 µg/ml. It is therefore clear that both the polyclonal antibodies and the antibodies of clones of hybridomas according to the present invention are able to identify not only the full-length protein LRP8 and the fragments from 18-25 kDa, but also advantageously the fragments 8-16 kDa, as indicated by the boxes in FIG. 3. […]

binding result: binds
B1: monoclonal antibody of hybridoma 25F7F1 (antibody, V domains shown)
VH: EVQLQQSGPVLVKPGASVKMSCKASGYKFTDHFMNWVKKNHGKSLEWIGVINPYNGGTRLNPKFKGKATLTVDKSSSTVYMELNSLTFEDSAVYYCARETIDLAWFAYWGQGTLVTVSA
VL: DVLMTQTPPSLPVTLGDQASISCRSSQSIVYSNGKTYLEWYLQKPGQSPKLLMYKVSNRFSGVPDRFSGSGSGTDFTLKISSVEAEDLGIYYCFQGSHVPLTFGAGTKLELK
notes: Mouse (BALB/c) hybridoma monoclonal; also called antibody produced by 25F7F1 mouse hybridomas
